System: Escherichia coli TOP10
Assay: shrunken log2 fold change of peptide-encoding DNA abundance (4.5 h post-induction vs induction); higher = less antimicrobial activity (less host growth inhibition)
Conditions: time post-induction: 4.5 h; library: site-saturation at positions 5, 18, 19, 20
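Also: peptides expressed intracellularly from a pBAD plasmid library in pooled LB shake-flask culture, induced with 0.3% L-arabinose, DNA abundance read by NGS, three biological replicates, DESeq2 with apeglm shrinkage.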

Row | Sequence | shrunken log2 fold change
1 | RRIRNRPPRLPRPRPRPGWNPRP | 0.324
2 | RRIRHRPPRLPRPRPRPGFEPRP | 0.373
3 | RRIRSRPPRLPRPRPRPYIQPRP | -1.18
4 | RRIRLRPPRLPRPRPRPNPFPRP | -0.334
5 | RRIRYRPPRLPRPRPRPQYAPRP | -0.262
6 | RRIRTRPPRLPRPRPRPPFPPRP | 0.256
7 | RRIRHRPPRLPRPRPRPTVRPRP | 0.165
8 | RRIRLRPPRLPRPRPRPYFCPRP | -0.34
9 | RRIRNRPPRLPRPRPRPGFTPRP | 0.0826
10 | RRIRPRPPRLPRPRPRPPKTPRP | 0.246
11 | RRIRMRPPRLPRPRPRPHTTPRP | -0.0908
12 | RRIRKRPPRLPRPRPRPSIFPRP | -0.0205
13 | RRIRQRPPRLPRPRPRPPVKPRP | 0.0851
14 | RRIRPRPPRLPRPRPRPVDQPRP | -0.256
15 | RRIRGRPPRLPRPRPRPLFLPRP | 0.0673
16 | RRIRFRPPRLPRPRPRPVQTPRP | 0.0206
17 | RRIRWRPPRLPRPRPRPNCDPRP | 0.14
18 | RRIRLRPPRLPRPRPRPSTGPRP | -0.221
19 | RRIRHRPPRLPRPRPRPLCNPRP | -0.337
20 | RRIRPRPPRLPRPRPRPLNGPRP | -0.0765
21 | RRIRQRPPRLPRPRPRPSQSPRP | -0.00144
22 | RRIRWRPPRLPRPRPRPLECPRP | 0.0173
23 | RRIRNRPPRLPRPRPRPDEPPRP | -0.061
24 | RRIRHRPPRLPRPRPRPSAYPRP | -0.562
25 | RRIRCRPPRLPRPRPRPCKLPRP | -0.896

Row | Sequence | shrunken log2 fold change
26 | RRIRKRPPRLPRPRPRPPRMPRP | 0.648
27 | RRIRIRPPRLPRPRPRPEMKPRP | -0.037
28 | RRIRERPPRLPRPRPRPECEPRP | 0.318
29 | RRIRARPPRLPRPRPRPQGWPRP | 0.472
30 | RRIRRRPPRLPRPRPRPELPPRP | 0.695
31 | RRIRQRPPRLPRPRPRPCFGPRP | 0.0162
32 | RRIRQRPPRLPRPRPRPIWRPRP | -0.068
33 | RRIRLRPPRLPRPRPRPEQQPRP | 0.0529
34 | RRIRMRPPRLPRPRPRPGYFPRP | 0.0909
35 | RRIRKRPPRLPRPRPRPSSIPRP | -0.0636
36 | RRIRTRPPRLPRPRPRPFNIPRP | -0.333
37 | RRIRRRPPRLPRPRPRPNMHPRP | 0.0848
38 | RRIRVRPPRLPRPRPRPMLYPRP | -0.375
39 | RRIRIRPPRLPRPRPRPVEKPRP | -0.126
40 | RRIRYRPPRLPRPRPRPERAPRP | 0.173
41 | RRIRPRPPRLPRPRPRPHSPPRP | -0.0589
42 | RRIRRRPPRLPRPRPRPLDKPRP | -0.152
43 | RRIRPRPPRLPRPRPRPWKAPRP | -0.133
44 | RRIRGRPPRLPRPRPRPVATPRP | 2.32
45 | RRIRNRPPRLPRPRPRPVISPRP | 0.156
46 | RRIRCRPPRLPRPRPRPETDPRP | -0.00874
47 | RRIRTRPPRLPRPRPRPMNCPRP | -0.0645
48 | RRIRLRPPRLPRPRPRPVIGPRP | -0.173
49 | RRIRHRPPRLPRPRPRPVMMPRP | -0.123
50 | RRIRIRPPRLPRPRPRPGTDPRP | -0.114

Row | Sequence | shrunken log2 fold change
51 | RRIRLRPPRLPRPRPRPRTDPRP | -0.0417
52 | RRIRNRPPRLPRPRPRPDDTPRP | 0.0119
53 | RRIRCRPPRLPRPRPRPDWSPRP | 0.0534
54 | RRIRPRPPRLPRPRPRPPVWPRP | 0.27
55 | RRIRARPPRLPRPRPRPVNKPRP | -0.117
56 | RRIRRRPPRLPRPRPRPWYRPRP | -0.151
57 | RRIRLRPPRLPRPRPRPMANPRP | -0.0744
58 | RRIRFRPPRLPRPRPRPHNFPRP | -0.399
59 | RRIRARPPRLPRPRPRPVELPRP | 0.0828
60 | RRIRKRPPRLPRPRPRPTDMPRP | -0.124
61 | RRIRTRPPRLPRPRPRPSDYPRP | -0.278
62 | RRIRMRPPRLPRPRPRPTDYPRP | 0.166
63 | RRIRVRPPRLPRPRPRPHDGPRP | 0.0377
64 | RRIRPRPPRLPRPRPRPVTKPRP | 0.138
65 | RRIRGRPPRLPRPRPRPSPGPRP | 0.732
66 | RRIRWRPPRLPRPRPRPSSSPRP | 0.00035
67 | RRIRTRPPRLPRPRPRPNRSPRP | -0.069
68 | RRIRIRPPRLPRPRPRPWMNPRP | -0.238
69 | RRIRMRPPRLPRPRPRPKCWPRP | 1
70 | RRIRKRPPRLPRPRPRPYGMPRP | -0.284
71 | RRIRDRPPRLPRPRPRPATGPRP | 0.312
72 | RRIRRRPPRLPRPRPRPVHGPRP | 0.335
73 | RRIRARPPRLPRPRPRPQLDPRP | 0.654
74 | RRIRDRPPRLPRPRPRPYGTPRP | -0.234
75 | RRIRVRPPRLPRPRPRPQRCPRP | 0.00942

Row | Sequence | shrunken log2 fold change
76 | RRIRWRPPRLPRPRPRPLKGPRP | 0.0212
77 | RRIRWRPPRLPRPRPRPMNCPRP | 0.0143
78 | RRIRHRPPRLPRPRPRPKDTPRP | -0.15
79 | RRIRARPPRLPRPRPRPTDCPRP | 0.0381
80 | RRIRSRPPRLPRPRPRPQPSPRP | 0.296
81 | RRIRTRPPRLPRPRPRPTRVPRP | 0.214
82 | RRIRPRPPRLPRPRPRPPEMPRP | 0.426
83 | RRIRDRPPRLPRPRPRPREDPRP | 0.293
84 | RRIRIRPPRLPRPRPRPPQWPRP | 0.205
85 | RRIRSRPPRLPRPRPRPAKYPRP | -0.215
86 | RRIRVRPPRLPRPRPRPRCDPRP | -0.0186
87 | RRIRQRPPRLPRPRPRPNCKPRP | -0.555
88 | RRIRPRPPRLPRPRPRPGVEPRP | 0.249
89 | RRIRRRPPRLPRPRPRPPRNPRP | 1.28
90 | RRIRKRPPRLPRPRPRPWKAPRP | 0.49
91 | RRIRARPPRLPRPRPRPEECPRP | 1.27
92 | RRIRRRPPRLPRPRPRPLAYPRP | -0.00715
93 | RRIRKRPPRLPRPRPRPQVRPRP | -0.117
94 | RRIRMRPPRLPRPRPRPLRCPRP | 1.61
95 | RRIRGRPPRLPRPRPRPLETPRP | 0.985
96 | RRIRVRPPRLPRPRPRPACIPRP | -0.0537
97 | RRIRRRPPRLPRPRPRPITHPRP | -0.287
98 | RRIRKRPPRLPRPRPRPFRIPRP | -0.0356
99 | RRIRLRPPRLPRPRPRPHWHPRP | -0.249
100 | RRIRYRPPRLPRPRPRPHPGPRP | -0.727

Row | Sequence | shrunken log2 fold change
101 | RRIRMRPPRLPRPRPRPWRSPRP | 0.166
102 | RRIRIRPPRLPRPRPRPVVYPRP | -0.312
103 | RRIRQRPPRLPRPRPRPNIKPRP | -0.558
104 | RRIRLRPPRLPRPRPRPSCFPRP | 0.172
105 | RRIRYRPPRLPRPRPRPFDSPRP | -0.0136
106 | RRIRDRPPRLPRPRPRPWDDPRP | -0.249
107 | RRIRYRPPRLPRPRPRPFVYPRP | -1.51
108 | RRIRFRPPRLPRPRPRPVKPPRP | -0.0579
109 | RRIRARPPRLPRPRPRPIIEPRP | 0.00879
110 | RRIRIRPPRLPRPRPRPPNWPRP | 0.0636
111 | RRIRFRPPRLPRPRPRPNQMPRP | -0.167
112 | RRIRTRPPRLPRPRPRPQYWPRP | -0.163
113 | RRIRFRPPRLPRPRPRPSPAPRP | 0.176
114 | RRIRFRPPRLPRPRPRPDHTPRP | -0.318
115 | RRIRQRPPRLPRPRPRPYAPPRP | -0.505
116 | RRIRKRPPRLPRPRPRPEDWPRP | 2.01
117 | RRIRCRPPRLPRPRPRPCCTPRP | -0.238
118 | RRIRLRPPRLPRPRPRPICAPRP | 0.0264
119 | RRIRNRPPRLPRPRPRPLCLPRP | -0.311
120 | RRIRQRPPRLPRPRPRPMMYPRP | 0.0473
121 | RRIRERPPRLPRPRPRPSDYPRP | -0.627
122 | RRIRTRPPRLPRPRPRPICPPRP | -0.0534
123 | RRIRNRPPRLPRPRPRPGPGPRP | 0.274
124 | RRIRTRPPRLPRPRPRPGKAPRP | -0.0369
125 | RRIRWRPPRLPRPRPRPKHTPRP | 0.578

Row | Sequence | shrunken log2 fold change
126 | RRIRDRPPRLPRPRPRPFTYPRP | -0.0134
127 | RRIRVRPPRLPRPRPRPYEEPRP | -0.128
128 | RRIRDRPPRLPRPRPRPRGGPRP | 0.726
129 | RRIRERPPRLPRPRPRPKPQPRP | 0.309
130 | RRIRARPPRLPRPRPRPQSMPRP | -0.0226
131 | RRIRGRPPRLPRPRPRPYDFPRP | -0.0968
132 | RRIRGRPPRLPRPRPRPLYRPRP | 1.11
133 | RRIRSRPPRLPRPRPRPFLDPRP | -0.149
134 | RRIRKRPPRLPRPRPRPRCVPRP | 0.276
135 | RRIRNRPPRLPRPRPRPFAFPRP | -0.74
136 | RRIRFRPPRLPRPRPRPRIHPRP | -0.262
137 | RRIRSRPPRLPRPRPRPEWTPRP | 0.329
138 | RRIRIRPPRLPRPRPRPFQMPRP | -0.271
139 | RRIRPRPPRLPRPRPRPYVLPRP | -0.519
140 | RRIRVRPPRLPRPRPRPNTGPRP | -0.112
141 | RRIRYRPPRLPRPRPRPHCEPRP | -0.00822
142 | RRIRKRPPRLPRPRPRPPKPPRP | 0.319
143 | RRIRPRPPRLPRPRPRPLSHPRP | -0.27
144 | RRIRERPPRLPRPRPRPPPQPRP | 0.553
145 | RRIRHRPPRLPRPRPRPFEVPRP | -0.172
146 | RRIRGRPPRLPRPRPRPDRLPRP | -0.00118
147 | RRIRIRPPRLPRPRPRPNTVPRP | -1.09
148 | RRIRKRPPRLPRPRPRPHCTPRP | -0.24
149 | RRIRQRPPRLPRPRPRPLIKPRP | -0.249
150 | RRIRKRPPRLPRPRPRPNEEPRP | -1.35e-05
